This is an account of results in paper PMC3102659.

Assay [1] has as its target TTAT mutant fiber of HAdV5 (KKTK motif of the shaft mutated) (human adenovirus serotype 5) (UniProt P11818). As to the kind of experiment: not stated; data not shown: folding of TTAT mutant fibers as trimers.
The target of assay [2] is immobilized HS (hypersulfated heparin), bridged by FX (m1). As to the kind of experiment: SPR. Particulars: virion + FX at 8 µg/ml (FXmax); HS immobilized on chip; read at end of injection (~285 s); parent: est. 2900; read off a plot.
For assay [3], the target named is human blood coagulation factor X (FX) (human).
The target is the same in assay [4]. This is another data set of the same source.
Assay [5] has the same target. As to the kind of experiment: SPR; biotinylated hypersulfated heparin (HS) on a streptavidin CM4 chip, BIAcore3000; hexon or virions injected alone or mixed with FX or FXGL; read-out is the FX-bridged binding to HS; HBS (10 mM HEPES, 150 mM NaCl, pH 7.4) with 3 mM CaCl2, 5 µl/min. A general note: SPR reads the build-up and loss of mass on a sensor chip optically.

Substance “TTAT mutant fiber of HAdV5 (KKTK motif of the shaft mutated) (from UniProt P11818 1-581) (natural protein)” displayed a stoichiometry N in assay [1] of 3.

Consider “HAdV5wt virion (replication-deficient HAdV5 vector with nonmodified capsid) (from UniProt P04133;P12538;P11818) fiber:K91T; fiber:K92T; fiber:T93A; fiber:K94T”, for which, in assay [2], the response stood at 2400 RU.

“HAdV5F^TTAT virion (HAdV5 vector mutated in the KKTK motif of the fiber shaft) (from UniProt P04133 1-952; P12538 1-571; P11818 1-581) (complex)”: the enhancement of transduction efficiency of CHO-K1 cells, MOI 2,500, increasing doses of FX up to FXmax (8 µg/ml) in assay [3] was found to be 65 fold. Take “HAdV5wt virion (replication-deficient HAdV5 vector with nonmodified capsid) (from UniProt P04133 1-952; P12538 1-571; P11818 1-581) (complex)”: the cell-bound virions on CHO-K1 cells (qPCR of viral genomes), MOI 5,000, 1 h at 4°C, increase with FX 8 µg/ml over no FX in assay [4] was 5 to 6 fold. In assay [4], “HAdV5F35 virion (serotype 35 fiber-pseudotyped HAdV5 vector) (from UniProt P04133 1-952; P12538 1-571) (complex)” registered a cell-bound virions on CHO-K1 cells (qPCR of viral genomes), MOI 5,000, 1 h at 4°C, increase with FX 8 µg/ml over no FX of 10 fold. Also, the copies of FX per virion at maximum FX-mediated binding to HS (copies of FX per virion) in assay [5] is 480. Consider “HAdV5wt virion (replication-deficient HAdV5 vector with nonmodified capsid) (from UniProt P04133;P12538;P11818) penton base:R340E”, for which the response in assay [2] is 2500 RU.

One may read the stoichiometry N as the number of molecules, sites or subunits per partner or assembly.
